Test [1] concerns the target T1, core domain of Signal Transducer and Activator of Transcription 1 (STAT1) (human).
T1 chain: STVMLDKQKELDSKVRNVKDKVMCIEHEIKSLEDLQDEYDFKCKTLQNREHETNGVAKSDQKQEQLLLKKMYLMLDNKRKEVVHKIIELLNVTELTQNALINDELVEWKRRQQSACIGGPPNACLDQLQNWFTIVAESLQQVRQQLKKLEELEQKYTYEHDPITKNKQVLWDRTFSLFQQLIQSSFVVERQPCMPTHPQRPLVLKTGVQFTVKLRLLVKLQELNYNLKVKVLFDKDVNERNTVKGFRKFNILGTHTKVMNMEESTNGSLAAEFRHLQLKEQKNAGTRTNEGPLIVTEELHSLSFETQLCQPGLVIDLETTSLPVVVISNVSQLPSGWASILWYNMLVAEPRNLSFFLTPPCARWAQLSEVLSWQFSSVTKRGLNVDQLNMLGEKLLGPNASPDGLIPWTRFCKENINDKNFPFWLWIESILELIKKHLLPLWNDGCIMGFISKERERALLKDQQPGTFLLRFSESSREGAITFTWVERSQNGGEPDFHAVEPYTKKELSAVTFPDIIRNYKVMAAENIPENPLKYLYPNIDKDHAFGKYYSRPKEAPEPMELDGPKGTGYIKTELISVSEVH
In words: peptide or protein array.

Test [2] deals with T2, PTB domain of Shc (human).
T2 sequence (P29353 whole entry, looked up): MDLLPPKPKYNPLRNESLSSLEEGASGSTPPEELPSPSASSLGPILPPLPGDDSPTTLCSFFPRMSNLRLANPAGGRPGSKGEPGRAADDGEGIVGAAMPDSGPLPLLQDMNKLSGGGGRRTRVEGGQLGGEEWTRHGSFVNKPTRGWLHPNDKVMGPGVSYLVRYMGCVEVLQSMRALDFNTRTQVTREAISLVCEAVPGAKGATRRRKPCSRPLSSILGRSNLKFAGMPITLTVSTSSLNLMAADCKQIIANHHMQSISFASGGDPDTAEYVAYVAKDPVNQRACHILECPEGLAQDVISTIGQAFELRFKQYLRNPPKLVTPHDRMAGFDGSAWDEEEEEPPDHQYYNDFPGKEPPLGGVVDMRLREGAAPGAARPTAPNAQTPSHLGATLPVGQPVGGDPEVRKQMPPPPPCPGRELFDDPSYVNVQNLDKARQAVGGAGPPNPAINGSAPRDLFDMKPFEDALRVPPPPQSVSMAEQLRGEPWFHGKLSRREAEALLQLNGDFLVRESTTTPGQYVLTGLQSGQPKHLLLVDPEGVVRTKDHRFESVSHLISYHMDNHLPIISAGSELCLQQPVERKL
The experiment in a line: peptide or protein array.

Non-standard residues stand in square brackets, D forms with d. No end group written: not given here. pY = N[C@@H](Cc1ccc(OP(=O)(O)O)cc1)C(=O)O

The molecule {5(6)‑TAMRA}-QAFNIPPPI[pY]TSRARIDD [ErbB4-1035 phosphopeptide] yielded a Kd in test [1] of 1550 nM.
For the molecule {5(6)‑TAMRA}-DLQALDNPE[pY]HNASNGPD [ErbB4-1188 phosphopeptide], the equilibrium dissociation constant (Kd) in test [2] was less than 1000 nM.
{5(6)‑TAMRA}-VQEDSSTQR[pY]SADPTVFD [ErbB4-1128 phosphopeptide] showed a Kd in test [1] of 2060 nM.
Molecule {5(6)‑TAMRA}-AKKAFDNPD[pY]WNHSLPPD [ErbB4-1242 phosphopeptide] returned a dissociation constant Kd in test [2] of less than 1000 nM.

The values are drawn from PMC2606095 (Chemistry & biology, 2008).
